Laboratory results published in article PMC10545799.

What was measured:
[1] = target: dsc-Agg5AB (chimeric donor strand complemented construct of minor pilin subunit Agg3B and major pilin subunit Agg5A) (enteroaggregative E. coli); test: SAXS; engineered subunit samples (monomer fractions of the gel filtration) in solution, 10 °C, dilutions 1:1 and 1:2; molecular weight and aggregation number from Guinier analysis; self-association
[2] = target: dsc-Agg5A (donor strand complemented major pilin subunit Agg5A of AAF/V) (enteroaggregative E. coli); test: as above

Row | Substance | stoichiometry N [1] | stoichiometry N [2]
1 | dsc-Agg5AB (chimeric donor strand complemented construct of minor pilin subunit Agg3B and major pilin subunit Agg5A) | 6.8 | 
2 | dsc-Agg5A (donor strand complemented major pilin subunit Agg5A of AAF/V) (domain or fragment) |  | 2
